What all share (assay): SPR
Details in all cases: both partners purified

Assay [1] deals with T1, Chui4 toxin (Centruroides huichol, UniProt C0HM17).
T1 construct: also called FII.10-1

Assay [2] concerns the target T2, Chui3 toxin (Centruroides huichol, UniProt C0HM16).
T2 construct: also called Chui3/Cn3; FII.9-3

Assay [3] addresses T3, Chui2 toxin (Centruroides huichol, UniProt C0HM15).
T3 construct: also called FII.9-2

The target of assay [4] is T4, Chui5 toxin (Centruroides huichol, UniProt C0HM18).
T4 construct: also called FII.12-1
T4 sequence (C0HM18 whole entry): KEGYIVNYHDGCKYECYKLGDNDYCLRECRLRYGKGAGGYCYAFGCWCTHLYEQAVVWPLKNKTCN

Assay [5] addresses T4, Chui5 toxin. The source holds these as a separate data set.
Assay [6] concerns the target T4, Chui5 toxin. The source holds these as a separate data set.
For assay [7], the target named is T1, Chui4 toxin. This is another data set of the same source.
In assay [8] the target is T2, Chui3 toxin. The source holds these as a separate data set.
In assay [9] the target is T4, Chui5 toxin. The source holds these as a separate data set.
The target of assay [10] is T3, Chui2 toxin. The source holds these as a separate data set.

T2 sequence (C0HM16 whole entry): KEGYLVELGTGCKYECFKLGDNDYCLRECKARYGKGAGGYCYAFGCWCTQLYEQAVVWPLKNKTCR
T1 sequence (C0HM17 whole entry): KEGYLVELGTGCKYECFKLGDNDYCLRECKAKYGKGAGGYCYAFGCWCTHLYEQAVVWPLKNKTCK
T3 sequence (C0HM15 whole entry): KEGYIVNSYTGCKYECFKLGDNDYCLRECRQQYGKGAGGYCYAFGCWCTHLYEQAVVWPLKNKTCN

B1: scFv 10FG2 (scFv, V domains shown)
VH: QVNLRESGGGLVQPGGSLRLSCAASGFSFGSYGMHWVRQAPGKGLEWVAVISYGGGSKYYADSVKGRFTISRDNSKNTLYLQMNSLRAEDTAVYYCAKDARDCLLCSDWTFDLWGRGTLVTVSS
VL: NFMLTQPHSASGTPGQRVTISCSGSSSNIGSNTVNWYRHLPGSAPELLIGSHNQRPSGVPDRFSGSKSGTSASLAISGLQSEDEADYYCAAWDDSTLGYVFGTGTKLTVL
notes: source: E. coli TG1 (pSyn1), purified (Ni2+-NTA, Superdex 75 SEC)
Turning to B1, in the assay with Chui4 toxin [1], the Kd (in general, a measure of binding affinity in units of concentration) was found to be 0.3 nM; the “TR (residence time)” value worked out at 242 min; the koff (usually the first-order rate constant of dissociation) was 7e-05 s⁻¹; the kon (as a rule, the rate constant with which the complex forms) was determined as 210000 M⁻¹ s⁻¹. In the assay with Chui3 toxin [2], binding was characterised by a dissociation constant (Kd) of 1.8 nM, the “TR (residence time)” value is 53.1 min, the koff turned out to be 0.00031 s⁻¹ and the kon was 180000 M⁻¹ s⁻¹. Also, in the assay with Chui2 toxin [3], the Kd was 1.1 nM, the “TR (residence time)” value amounted to 60.4 min, the koff came to 0.00028 s⁻¹ and the kon came to 280000 M⁻¹ s⁻¹.

B2: scFv 9a (scFv, V domains shown)
VH: QVNLRESGGGLVQPGGSLRLSCAASGFSFGSYGMHWVRQAPGKGLEWVAVISYGGGSKYYADSVKGRFTISRDNSKNTLYLQMNSLRAEDTAVYYCAKDARDCLQCSDWTFDLWGRGTLVTVSS
VL: NFMLTQPHSASGTPGQRVTISCSGSSSNIGSNTVNWYRHLPGSAPELLIGSHNQRPSGVPDRFSGSKSGTSASLAISGLQSEDEADYYCAAWDDSTLGYVFGTGTKLTVL
notes: also called variant 9a; clone 9a
Consider B2, for which, in the assay with Chui5 toxin [4], the Kd was 8.2 nM, the koff is 0.00119 s⁻¹ and the kon turned out to be 150000 M⁻¹ s⁻¹.

B3: scFv B15a (scFv, V domains shown)
VH: QVNLRESGGGLVQPGGSLRLSCAASGFSFGSYGMHWVRQAPGKGLEWVAVISYGGGSKYYADSVQGRFTISRDNSKNTLYLQMNSLRAEDTAVYYCAKDARDCLQCSDWTFDLWGRGTLVTVSS
VL: NFMLTQPHSASGTPGQRVTISCSGSSSNIGSNTVNWYRHLPGSAPELLIGSHNQRPSGVPDRFSGSKSGTSASLAISGLQSEDEADYYCAAWDDSTLGYVFGTGTKLTVL
notes: also called B15a variant; source: E. coli TG1 (pSyn1), purified (Ni2+-NTA, Superdex 75 SEC)
In the assay with Chui5 toxin [4], B3 registered a Kd of 7.3 nM, a koff of 0.00097 s⁻¹ and an on-rate constant (kon) of 130000 M⁻¹ s⁻¹. In the assay with Chui5 toxin [5], this molecule gave a dH of -2.6 kcal/mol.

B4: scFv HV (scFv, V domains shown)
VH: QVNLRESGGGLVQPGGSLRLSCAASGFSYGSYGMHWVRQAPGKGLEWVAVISYGGGSKYYADSVQGRFTISRDNSKNTLYLQMNSLRAEDTAVYYCAKDARDCLGCSDWTFDLWGRGTLVTVSS
VL: NFMLTQPHSASGTPEQRVTISCSGSSSNIGSNTVNWYRHLPGSAPELLIGSHNQRPSGVPDRFSGSKSGTSASLAISGLQSEDEADYYCAAWDDSTLGYVFGTGTKLTVL
notes: also called HV variant
As to B4, in the assay with Chui4 toxin [1], binding was characterised by a dissociation constant (Kd) of 0.9 nM, the “TR (residence time)” value amounted to 105 min, the koff came to 0.00016 s⁻¹ and the kon is 180000 M⁻¹ s⁻¹. Also, in the assay with Chui3 toxin [2], the Kd turned out to be 3.8 nM, the “TR (residence time)” value came out at 48.8 min, the dissociation rate constant (koff) was found to be 0.00034 s⁻¹ and the kon was found to be 90000 M⁻¹ s⁻¹. Also, in the assay with Chui5 toxin [6], the Kd was 6.9 nM, the “TR (residence time)” value came to 15.5 min, the koff was 0.00108 s⁻¹ and the kon amounted to 160000 M⁻¹ s⁻¹. In addition, in the assay with Chui2 toxin [3], binding was characterised by a dissociation constant (Kd) of 3.1 nM, the “TR (residence time)” value was found to be 34.2 min, the koff came out at 0.00049 s⁻¹ and the kon is 160000 M⁻¹ s⁻¹. In the assay with Chui5 toxin [5], this molecule showed a dH of -1.6 kcal/mol.

B5: scFv LR (scFv, V domains shown)
VH: EVQLVESGGGLVQPGGSLRLSCTGSGFTFDNYAMHWLRQVPGEGLEWVSGISRSSGDIDYADSVKGRFTISRDDAKKTLSLQMNSLRAEDTAVYYCARGGFGSFDTWGQGTMVTVSS
VL: EIVLTQSPATLSVSPGERATLSCRASQSVRSYLAWYQQKPGQAPRLLFSDASNRATGIPARFTGSGSGTDFTLTISSLEPEDFAIYYCQQYRYSPRTFGQGTKVEIK
With B5, the binding result with Chui4 toxin [7] is on record as “binds”; with Chui3 toxin [8], “binds”; in the assay with Chui5 toxin [9] it was “no binding (tested: 25 nM)”; with Chui2 toxin [10], “binds”.
